Measurements: the nanobody polyreactivity screen of Harvey et al. (2022)

Test: yeast display, Sf9 membrane polyspecificity reagent, FACS + sequencing; frameworks hold sequencing errors
Summary of the method: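 Sorting gates, low and high (top ~1%), were placed on anti-HA fluorescence to track expression and on streptavidin fluorescence to track reagent binding. A clone's polyreactivity label is taken from the gate it came out of. The reagent was 10% biotinylated, detergent-solubilized Sf9 membrane, applied for 1 hour at 4 °C to galactose-induced yeast display cells.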
With “QVQLVESGGGLVQAGGSLRLSCAASGRTFQPYAMGWYRQAPGKERELVAAITSIGGSTFYADSVKGRFTISRDNAKNTVYLQMNSLKPEDTAVYYCNARRYWLRYDYWGQGTQVTVSS” the “polyreactivity (PSR sort gate)” value was “low polyreactivity”.
In the case of “QVQLVESGGGLVQAGGSLRLSCAASGRIFWDNAMGWYRQAPGKERELVADITWRSDSTYYADSVKGRFTISRDNAKNTVYLQMNSLKPEATAVYYCAKPINIYPYDYWGQGTQVTVSS”, the “polyreactivity (PSR sort gate)” value is reported as “low polyreactivity”.
For “QVQLVESGGGLVQAGGSLRLSCAASGRIFWYYTMGWYRQAPGKERELVASINSDTGTYYADSVKGRFTISRDNAKNTVYLQMNSLKPEDTAVYYCNKDDYALSNTWRPEYDYWGQGTQVTVSS”, the “polyreactivity (PSR sort gate)” value was “low polyreactivity”.
For “QVQLVESGGGLVQAGGSLRLSCAASGRTFGYYAMGWYRPAPGKERELVAAISSGGGTYYADSVKGRFTISRDNAKNTVYLQRNSLNPEASAVYYIAATGWLYWGQFYYWGQGTLVTVSS”, the “polyreactivity (PSR sort gate)” value was “low polyreactivity”.
For “QVQLVESGGGLVQAGGSLRLSCAASGRTINRSAMGWYRQAPGKARELVAAISTSGGTTYYADSVKGRFTISRDNAQNTAYLQMNSLKPEDPADYYCAKRGPVRTQYTYYYWGQGTQVTVSS”, the “polyreactivity (PSR sort gate)” value was “high polyreactivity”.
For “QVQHVESGGGLVQAGASLRLSCAASGFTIRSYVRGWYRQAPGKEREIVAAISYRGGGTNYADSVKGRFTISRDNAKNTVYLHMNSLKPEDTAVYYCNARSGSSKSGYYYWGQGTQVTVSS”, the “polyreactivity (PSR sort gate)” value was “high polyreactivity”.
For “QVQLVESGGGLVQAAGSLRLSCAASGRIFRRYAMGWYRQAPGKERELVAAITNNGANTYYADSVKGRFTISRDNAKNTVYLQMNSLKPEDTAVYDCARKSYPGRPAYRYDYWGQGTQVTVSS”, the “polyreactivity (PSR sort gate)” value was “high polyreactivity”.
In the case of “QVQLVESGGGLVQAGGSLRLSCAASGRIYGTNAMGWYRQAPGKEMELVAAINGSDSSTYYADSVKGRFTISRDNAKNTVYLQINSLKPEDTAVYYCNADWSGAPERSTDGYDYWGQGTQVTVSS”, the “polyreactivity (PSR sort gate)” value is reported as “low polyreactivity”.
In the case of “QVQLVESGGGLVQAGGSLRLSCAASGSTFRYNAMGWYRQAPGKEREMVATITWSGGSTYYADSVKGRFTISRDNAKNTVYLQMNSLKPEDTAVYYCAKLPFPVYYGGSYKYYYWGLGTQVTVSS”, the “polyreactivity (PSR sort gate)” value is reported as “high polyreactivity”.
With “QVQLVESWGGLVQAGGSLRLSCAASGFIFDNNALGWYRQAPGKERELVADISRSGGSTYADSVKGRFTISRDNAKNTVYFQMNSLKAEDTAVYYCAKDFQGRRPPKEPSAFYYWGQGTQVTVSS” the “polyreactivity (PSR sort gate)” value was “low polyreactivity”.
For “QVQLVESGGGLVQAGGSLRLSCAASGSTFEANAMGWYRQAPGKERELVAVITWTGGSTYYADSVKGRFTISRDNAKNTVYLQMNSLKPEDTAVYYCAADGVVPGRFFWPAHEYDYWGQGTQVTVSS”, the “polyreactivity (PSR sort gate)” value was “low polyreactivity”.
For “QVQLVESGGGLVQAGGSLRLSCAASGRTFGYYAMGWYIQAPGKERELVAAISSRGGSTYYADSVKGRFTISRDNAKNTVYLQMNSLKPEDTAVYYCNTRWTNIHPRYDYWGQGTQVTVSS”, the “polyreactivity (PSR sort gate)” value was “high polyreactivity”.
With “QDQLVESGGGLVQAGGSLRLSCAASGRLFSQYAMGWYRQAPGKERELVAAISWRTGSTYYADSVKGRFTISRDNAKNTVYLQMNSLKPEDTAVYYCSAANAGRYPYNYSGQGTQVTVSS” the “polyreactivity (PSR sort gate)” value was “high polyreactivity”.
For “QVQLVESGGGLVQAGGSLRLSCAASGSIFFGYAMGWYRPAPGKERELVAAISSDGSTYYADSVKGRFTISRDNAKNTVYLQMNSLKPEDTAVYYCNAEQAIFYWYATVTYDYWGQGTQVTVSS”, the “polyreactivity (PSR sort gate)” value was “low polyreactivity”.
In the case of “QVQLVESGGGLVQAGGSLRLICAASGRILWYYAMGWYRQAPGKERELVAAITSSGRTKYADSVKGRFTISRDNAKNTVYLQMNSLKPEDSAVYYCAARPSQWNYDYRRVYYWGQGTQVTVSS”, the “polyreactivity (PSR sort gate)” value is reported as “high polyreactivity”.
In the case of “QVQLVESGGGLDQEGGSLRLSSAASGRTFRGYAMGWYIQAPGKEREIVDAISRGTVGTYYADSVKGRFTISRDNAKNTVYLQMISLKPEDTAVYYCAADRFANFSNLRLGYYSWGQGTQLTVSS”, the “polyreactivity (PSR sort gate)” value is reported as “low polyreactivity”.
For “QVQLVESGGGLVQAGGSLRLSCAASGITFYRNAMGWYRQAPGKERELVAAITWNGGRTYYADSVKGRFTISRDYAKNTVYLQMNSLKPEDSAVYYCAKRYGSTQSRYVYWGQGTQVTVSS”, the “polyreactivity (PSR sort gate)” value was “high polyreactivity”.
With “QVQLVESGGGLLQAGGSLRLSCAASGFTFGGNAMGWYRQAPGKERELVAAITSRGGSTYYADSVKGRFTISRDNAKNTFYLQMYSLKPEDTAVYYCAAQFTTRYDWGQGTQVTVSS” the “polyreactivity (PSR sort gate)” value was “high polyreactivity”.
In the case of “QVQLLESGGGLVQAGGSLRLSCAASGSTFLIYAMGWYRQAPGKERELVASINLNTGRTSYADSVKGRFTISRDNAKNTVYLQMNSLKPEDTAVYYCAAELWVRFRGVKEYDYWGQGTQVSVSS”, the “polyreactivity (PSR sort gate)” value is reported as “high polyreactivity”.
For “QVQLVESGGGLFQAGGSLRLSCAASGSTFNTNAMAWYRHAPGKERELVAAISWSSTRTYYADSVKWRFTISRDNAKNTVYLQMNSLKPEDTAVYYCAAATYQSRYFQRFDYWGQGTQVTVSS”, the “polyreactivity (PSR sort gate)” value was “high polyreactivity”.
With “QVQLVESGGGLVQAGGSLRLSCAASGFTFTRNAMGWYRQAPGKERELVAAITSSGGRTYYADSVKGRFTISRDNAKNTVYLQMNSLKPEDTAVYYCAVYPRYSLPARDYDYWGQGTQVTVSS” the “polyreactivity (PSR sort gate)” value was “high polyreactivity”.
For “QVQLVESGGGLVQAGGSLRLSCAASGFTFSYYAMGWYRQAPGKERELVAAIRGGGSTYADSVKGRFTISRDNAKNTVYLQMHSLKPEDTAVYYCAARYSGSPYPTRRYDYWGQGTQVTVSS”, the “polyreactivity (PSR sort gate)” value was “high polyreactivity”.
For “QVQRVESGGGLVQAGGSLRLSCAASGYTFEAYAMGWYRQAPGKERELVAAITINGGSTYYADSVKGRFTISRDNAKNTVYLQMNSLKPEDTAVYYCAADLFHRAGWYFAYGHWGLGTQVTVSS”, the “polyreactivity (PSR sort gate)” value was “low polyreactivity”.
In the case of “QVQLVESGGGLVQAGGSLRLSCAASGSPFYNYAMGWYRQAPGKERELVAAIRNGGGTNYADSVKGRFTISRDNAKNTVYLQMNSLKPEDTAVYDCNKAYGVSGTGVDYWGQGTQVTVSS”, the “polyreactivity (PSR sort gate)” value is reported as “low polyreactivity”.
In the case of “QVQLVESGGGLVQAGGSLRLSCAASGFIFTTYAMGWSRQAPGKEWELVAAISTSGGRTYYADSVKGRFTISRDNAKNTVYLQMNSLKPEDTAVYYCNTYSYYSYDWGQGTQVTVSS”, the “polyreactivity (PSR sort gate)” value is reported as “high polyreactivity”.
For “QVQLVESGRGLVQAGGSLRLSCAASGFTLICNARGCYRQAPGKERELVAAITWSGGSTYYADSVKGRFTISRDKAKNTVYLQMNSLKPEDTAVYYCAADYSIQSNDDWGQGTQVTVSS”, the “polyreactivity (PSR sort gate)” value was “low polyreactivity”.
With “QVQLVESGGGLVQAGGSLRLSCAASVRTYGFNTMGSYRQAPGKERELVAANTTSGGSTYYADSVKGRFTISRDNAKNTVYLQMNSLKPDDSAVYYCAKDYYSKHFPIYEYWGQGTQVTVSS” the “polyreactivity (PSR sort gate)” value was “low polyreactivity”.
For “QVQLVESGGGLVQAGGSLRLSCAASGRIFVPNAMGWYRPAPGKERELVAAISLRGGSTYYADSVKGRFTISRDNAKYTVYLQMNSLKPEDTAVYYCGWAYRYPHDYWGQGTQVTVSS”, the “polyreactivity (PSR sort gate)” value was “high polyreactivity”.
With “QVQLVESGGGLVQAGGSLRLSCAASGGTFHYYAMGWYRQAPGKERELVAAINRSGDSTYYADSVKGRFTISRDNAKNTVYLQMNSLKPEDTAVYYCAVSYYGADGNPFPHDYWGQGTQVTVSS” the “polyreactivity (PSR sort gate)” value was “low polyreactivity”.
For “QVQLVESGGGLVQSGGSLRLSCAASGRIFARNAMGWYRQAPGKEREFVAAITFSGGSTYYADSVKGRFTISRDNAKNTVYLQMNSLKPEDTAVYYCAARSWRVLTREDYWGQGTQVTVSS”, the “polyreactivity (PSR sort gate)” value was “high polyreactivity”.
In the case of “QVQLVESGGGLVQAGGSLRLSCAASGRTFTKYAMGWYRQAPGKERELVAAISNSGGSTFYADSVKGRFTISRDNAKNTVYLQMNSLKPEDTAVYYCAVDLGDTQYVPFDYWGQGTQVTVSS”, the “polyreactivity (PSR sort gate)” value is reported as “low polyreactivity”.
In the case of “QVQLVESWGGLVQAGGRLRLSCAASGRTFPGYAMGWYRPAPRKERELVAGISYRGGSTYYADSVKGRFTISRDNAKYTDYLQMNSLNPEDTAVYYCARDYSRHKGDYWGQGTQVTVSS”, the “polyreactivity (PSR sort gate)” value is reported as “low polyreactivity”.
For “QVQLVESGGGLVQAGGSLRLSCAASGLTMTWNSMGWYRQAPGKERELVAAIRWRGSSTYYADSVKGRFTISRDNAKNTVYLQLNSLKPEDTAVYYCAAEPRYYHVGYEYDNWGQGTQVTVSS”, the “polyreactivity (PSR sort gate)” value was “high polyreactivity”.
For “QVHLVESGGGLVQAGGSLRLSCAASGRTFYVYAMGWYIQAPGKERELVATITSRGGRTYYADSVKGRFTISRDNAKNTVYLQMNSLKPEDTAVYYCNAAWWKVSYVRQKYYYWGQGTQVTVSS”, the “polyreactivity (PSR sort gate)” value was “high polyreactivity”.
In the case of “QVQLVESGGGLVQAGGSRRLSCAASGRIFLGYTMGWYRQAPGKERELVAAISKSGDSTYYADSVKGRFTISRDNAKNTVYLQMNSLKPEDTAVYYCAAKRYRVGYGYWGQGTQVTVSS”, the “polyreactivity (PSR sort gate)” value is reported as “high polyreactivity”.
For “QVQLVESGGGLVQAGGSLRLSCADSGSTFVNYAMGWYRQAPGKERELVAAISSTGGSTYYADSVKGRFTISRDNAKNTVYLQMNSLKPEDTAVYYCAAYRYFKMGYWGQGTQVTVSS”, the “polyreactivity (PSR sort gate)” value was “high polyreactivity”.
For “QVQLVESGGGLVQAGGSLRLSCAASGRTFARNVMGSYRQAPGKERELVAAIRGSGGSTYYADSVKGRFTISRDNSKNTVYLQMNSLKPEDTAVYYCAADSSYTKRYSPTKLHFEYWGQGTQVTVSS”, the “polyreactivity (PSR sort gate)” value was “high polyreactivity”.
In the case of “QDQLVESGGGLVQAGRSLRLTCAASGSIIPGNAMGWYRQAPGKERELVAVIDFSGASTYYADSVKGRFTISRDNAKNTVYLQMNSLKPEDTADYWGQGTQVTVSS”, the “polyreactivity (PSR sort gate)” value is reported as “low polyreactivity”.
For “QVQRVESAGGLVQAGGSLRLSCAPTGSIFSTNPMGWYSQSPGTERELVATITWSDGSTYYADSVKGRFTISRDNAKNTVYLQLNSLKPEDTAVYDCATPYKRDFYKGGDYWAQGTQVTVSS”, the “polyreactivity (PSR sort gate)” value was “low polyreactivity”.
With “QVQLGESGGGLVQAGGCLRLSCAASGSIFAANAMGWYRQAPGKERELVAAINSGDSTNYADSVKGRFTISRDYAKKTVYLQMNSLKPEDTAVYYCARGLEERYDYWGQGTQVTVSS” the “polyreactivity (PSR sort gate)” value was “low polyreactivity”.
In the case of “QVQLQERGGGLVQAGGDLRLSCAASGNIFRDYIMGWYRQAPGKEREFVAGIDRGANTNYADSVKGRFTISRDNAKNTVYLQMNSLKPEDTAVYYCAVHTAIVPDFIYWGQGTQVTVSS”, the “polyreactivity (PSR sort gate)” value is reported as “low polyreactivity”.
For “QVHVVESGGGLVQAGGSLRLSCAASGFTFAKYAMGWYRQAPGKERELVAVITSSGGRTYYADSVKGRFTISRDNAKNTVYLQMNSLKPEDTAVYYCNAGKYVYATSQYDYWGQGTQVTVSS”, the “polyreactivity (PSR sort gate)” value was “high polyreactivity”.
For “QVQLVETGGGLVQAGGSLRLSCAASGSTIYLYAAMGLYRQAPGKESELVAAISGSGGSTFYADSVKGRFTISRDNAKNTVYLQMNSLKPEDTAVYYCAADKRYPYETYRPSVSASDSWGQGTQVTVSS”, the “polyreactivity (PSR sort gate)” value was “low polyreactivity”.
